Reference: patent US20230002480A1

Legend:
Assay in all cases: cell-based or functional assay
[1] = molecular target: HIV-1 Env of pseudovirus 0260.v5.c36 (HIV-1)
[2] = molecular target: HIV-1 Env of pseudovirus HIV-16055-2.3 (HIV-1)
[3] = molecular target: HIV-1 Env of pseudovirus CNE20 (HIV-1)
[4] = molecular target: HIV-1 Env of pseudovirus ZM214M.PL15 (HIV-1)
[5] = molecular target: HIV-1 Env of pseudovirus 235-47 (HIV-1)
[6] = molecular target: HIV-1 Env of pseudovirus SC422661.8 (HIV-1)
[7] = molecular target: HIV-1 Env of pseudovirus BJOX025000.01.1 (HIV-1)
[8] = molecular target: HIV-1 Env of pseudovirus Ce1086_B2 (HIV-1)
[9] = molecular target: HIV-1 Env of pseudovirus ZM233M.PB6 (HIV-1)
[10] = molecular target: HIV-1 Env of pseudovirus 3365.v2.c2 (HIV-1)
[11] = molecular target: HIV-1 Env of pseudovirus C3347.c11 (HIV-1)
[12] = molecular target: HIV-1 Env of pseudovirus 62357_14_D3_4589 (HIV-1)
[13] = molecular target: HIV-1 Env of pseudovirus 1054_07_TC4_1499 (HIV-1)
[14] = molecular target: HIV-1 Env of pseudovirus ZM197M.PB7 (HIV-1)
[15] = molecular target: HIV-1 Env of pseudovirus CNE30 (HIV-1)
[16] = molecular target: HIV-1 Env of pseudovirus BJOX028000.10.3 (HIV-1)
[17] = molecular target: HIV-1 Env of pseudovirus X1254_c3 (HIV-1)
[18] = molecular target: HIV-1 Env of pseudovirus SC05_8C11_2344 (HIV-1)
[19] = molecular target: HIV-1 Env of pseudovirus ZM53M.PB12 (HIV-1)
[20] = molecular target: HIV-1 Env of pseudovirus CNE58 (HIV-1)
[21] = molecular target: HIV-1 Env of pseudovirus Ce1176_A3 (HIV-1)
[22] = molecular target: HIV-1 Env of pseudovirus Ce0393_C3 (HIV-1)
[23] = molecular target: HIV-1 Env of pseudovirus ZM109F.PB4 (HIV-1)
[24] = molecular target: HIV-1 Env of pseudovirus Du172.17 (HIV-1)
[25] = molecular target: HIV-1 Env of pseudovirus Ce0682_E4 (HIV-1)
[26] = molecular target: HIV-1 Env of pseudovirus Ce704809221_1B3 (HIV-1)
[27] = molecular target: HIV-1 Env of pseudovirus X2088_c9 (HIV-1)

Question: With N49P7.1 (antibody) as the substance, how does the neutralization IC50 [1] read?
Answer: 0.497 mg/L

Question: What about the neutralization IC80 [1] of the same substance?
Answer: 1.51 mg/L

Question: And the neutralization MPI [1]?
Answer: 100

Question: And the neutralization IC50 [2]?
Answer: 0.088 mg/L

Question: What about the neutralization IC80 [2] of the same substance?
Answer: 0.318 mg/L

Question: And the neutralization MPI [2]?
Answer: 100

Question: And the neutralization IC50 [3]?
Answer: 0.079 mg/L

Question: And the neutralization IC80 [3]?
Answer: 0.224 mg/L

Question: What about the neutralization MPI [3] of the same substance?
Answer: 100

Question: What about the neutralization IC50 [4] of the same substance?
Answer: 0.257 mg/L

Question: What about the neutralization IC80 [4] of the same substance?
Answer: 0.853 mg/L

Question: And the neutralization MPI [4]?
Answer: 100

Question: And the neutralization IC50 [5]?
Answer: 0.078 mg/L

Question: What about the neutralization IC80 [5] of the same substance?
Answer: 0.419 mg/L

Question: And the neutralization MPI [5]?
Answer: 97

Question: And the neutralization IC50 [6]?
Answer: 0.125 mg/L

Question: And the neutralization IC80 [6]?
Answer: 0.417 mg/L

Question: What about the neutralization MPI [6] of the same substance?
Answer: 100

Question: And the neutralization IC50 [7]?
Answer: 0.057 mg/L

Question: And the neutralization IC80 [7]?
Answer: 0.378 mg/L

Question: And the neutralization MPI [7]?
Answer: 100

Question: What about the neutralization IC50 [8] of the same substance?
Answer: 0.121 mg/L

Question: And the neutralization IC80 [8]?
Answer: 0.742 mg/L

Question: What about the neutralization MPI [8] of the same substance?
Answer: 99

Question: What about the neutralization IC50 [9] of the same substance?
Answer: 0.355 mg/L

Question: What about the neutralization IC80 [9] of the same substance?
Answer: 1.25 mg/L

Question: And the neutralization MPI [9]?
Answer: 100

Question: What about the neutralization IC50 [10] of the same substance?
Answer: 0.088 mg/L

Question: What about the neutralization IC80 [10] of the same substance?
Answer: 0.289 mg/L

Question: And the neutralization MPI [10]?
Answer: 100

Question: And the neutralization IC50 [11]?
Answer: 0.048 mg/L

Question: What about the neutralization IC80 [11] of the same substance?
Answer: 0.161 mg/L

Question: And the neutralization MPI [11]?
Answer: 100

Question: And the neutralization IC50 [12]?
Answer: 0.028 mg/L

Question: And the neutralization IC80 [12]?
Answer: 0.15 mg/L

Question: And the neutralization MPI [12]?
Answer: 100

Question: What about the neutralization IC50 [13] of the same substance?
Answer: 0.627 mg/L

Question: And the neutralization IC80 [13]?
Answer: 2.98 mg/L

Question: And the neutralization MPI [13]?
Answer: 100

Question: And the neutralization IC50 [14]?
Answer: 0.144 mg/L

Question: What about the neutralization IC80 [14] of the same substance?
Answer: 0.539 mg/L

Question: What about the neutralization MPI [14] of the same substance?
Answer: 100

Question: What about the neutralization IC50 [15] of the same substance?
Answer: 0.307 mg/L

Question: And the neutralization IC80 [15]?
Answer: 1.01 mg/L

Question: What about the neutralization MPI [15] of the same substance?
Answer: 100

Question: What about the neutralization IC50 [16] of the same substance?
Answer: 0.031 mg/L

Question: And the neutralization IC80 [16]?
Answer: 0.29 mg/L

Question: What about the neutralization MPI [16] of the same substance?
Answer: 100

Question: What about the neutralization IC50 [17] of the same substance?
Answer: 3.96 mg/L

Question: What about the neutralization IC80 [17] of the same substance?
Answer: 18.2 mg/L

Question: What about the neutralization MPI [17] of the same substance?
Answer: 96

Question: And the neutralization IC50 [18]?
Answer: 0.189 mg/L

Question: What about the neutralization IC80 [18] of the same substance?
Answer: 0.688 mg/L

Question: And the neutralization MPI [18]?
Answer: 100

Question: And the neutralization IC50 [19]?
Answer: 0.287 mg/L

Question: And the neutralization IC80 [19]?
Answer: 1 mg/L

Question: What about the neutralization MPI [19] of the same substance?
Answer: 100

Question: And the neutralization IC50 [20]?
Answer: 0.049 mg/L

Question: And the neutralization IC80 [20]?
Answer: 0.107 mg/L

Question: What about the neutralization MPI [20] of the same substance?
Answer: 100

Question: What about the neutralization IC50 [21] of the same substance?
Answer: 0.279 mg/L

Question: What about the neutralization IC80 [21] of the same substance?
Answer: 1.01 mg/L

Question: And the neutralization MPI [21]?
Answer: 100

Question: What about the neutralization IC50 [22] of the same substance?
Answer: 0.23 mg/L

Question: What about the neutralization IC80 [22] of the same substance?
Answer: 1.02 mg/L

Question: And the neutralization MPI [22]?
Answer: 100

Question: What about the neutralization IC50 [23] of the same substance?
Answer: 0.055 mg/L

Question: And the neutralization IC80 [23]?
Answer: 0.199 mg/L

Question: And the neutralization MPI [23]?
Answer: 100

Question: What about the neutralization IC50 [24] of the same substance?
Answer: 0.185 mg/L

Question: And the neutralization IC80 [24]?
Answer: 0.748 mg/L

Question: And the neutralization MPI [24]?
Answer: 100

Question: What about the neutralization IC50 [25] of the same substance?
Answer: 0.026 mg/L

Question: What about the neutralization IC80 [25] of the same substance?
Answer: 0.099 mg/L

Question: And the neutralization MPI [25]?
Answer: 100

Question: What about the neutralization IC50 [26] of the same substance?
Answer: 0.211 mg/L

Question: What about the neutralization IC80 [26] of the same substance?
Answer: 1.35 mg/L

Question: And the neutralization MPI [26]?
Answer: 100

Question: What about the neutralization IC50 [27] of the same substance?
Answer: 0.199 mg/L

Question: And the neutralization IC80 [27]?
Answer: 0.726 mg/L

Question: What about the neutralization MPI [27] of the same substance?
Answer: 100
